Test results from patent publication CN114835808A (dated 2022).

Biological target: T1, 重组cTnI抗原 (UniProt P19429 1-210, limits assumed)
T1 construct: Both are treated here as the same coating of the same experiment
Assay: indirect ELISA, recombinant cTnI coated, enzyme-labelled secondary antibody

T1 sequence (P19429 whole entry): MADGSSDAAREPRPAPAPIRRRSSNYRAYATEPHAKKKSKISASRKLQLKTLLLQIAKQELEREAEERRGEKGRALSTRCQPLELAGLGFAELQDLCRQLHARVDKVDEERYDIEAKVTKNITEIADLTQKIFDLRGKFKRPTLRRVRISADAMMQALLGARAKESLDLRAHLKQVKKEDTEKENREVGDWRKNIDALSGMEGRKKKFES

B1: cTnI抗体突变4 (antibody, V domains shown)
VH: EVQLVESGGDLVTPGGSLKLSCTASGFTFSNYAMSWVRQTPEKRLEWVATISSGGTYTFYPDSVKGRFTISRDNAKNTLYLQMSSLRSEDTAIYYCTAAGAFDGEKALDYWGQGTSVTVSS
VL: DIQMNQSTSSLSASLGDRVTISCRASQDISSYLNWYQQRADGTIKLLIYFTSRLHSGVPSRFSGSGSGTDYSLTISNLEQEDIATYFCQQGNTVAATFGGGTRLEIK
notes: Mutant of a mouse anti-cTnI monoclonal antibody, made recombinantly by transient expression and purified on SPA; also called 突变抗体4
B1: no binding (tested: 检测值小于0.05基本可判定无活性 (阴性对照0.047左右)).
